Tests used:
Experiment in all cases: ELISA, immobilised recombinant L7/L12 (10 ng/mL), antibody 10 ug/mL
[1] = target: T1, 黄色ブドウ球菌(SA)のリボソームタンパク質L7/L12 (黄色ブドウ球菌 (Staphylococcus aureus))
T1 construct: also called Staphylococcus aureus ribosomal protein L7/L12; SA L7/L12

緑膿菌(PA)のリボソームタンパク質L7/L12 = target: T2, 緑膿菌(PA)のリボソームタンパク質L7/L12 (緑膿菌 (Pseudomonas aeruginosa))
T2 construct: also called Pseudomonas aeruginosa ribosomal protein L7/L12; PA L7/L12

[2] = target: T3, クレブシエラ・ニューモニエ(KP)のリボソームタンパク質L7/L12 (クレブシエラ・ニューモニエ (Klebsiella pneumoniae))
T3 construct: also called 肺炎桿菌; Klebsiella pneumoniae ribosomal protein L7/L12

[3] = target: T4, モラキセラ菌(MC)のリボソームタンパク質L7/L12 (モラキセラ菌 (Moraxella catarrhalis))
T4 construct: also called Moraxella catarrhalis ribosomal protein L7/L12; MC L7/L12

[4] = target: T5, 溶連菌(SPY)のリボソームタンパク質L7/L12 (溶連菌 (Streptococcus pyogenes))
T5 construct: also called Streptococcus pyogenes ribosomal protein L7/L12; SPY L7/L12

[5] = target: T6, 髄膜炎菌(NM)のリボソームタンパク質L7/L12 (髄膜炎菌 (Neisseria meningitidis))
T6 construct: also called Neisseria meningitidis ribosomal protein L7/L12; NM L7/L12

淋菌(NG)のリボソームタンパク質L7/L12 = target: T7, 淋菌(NG)のリボソームタンパク質L7/L12 (淋菌 (Neisseria gonorrhoeae))
T7 construct: also called Neisseria gonorrhoeae ribosomal protein L7/L12; NG L7/L12

[6] = target: T8, クラミジア・トラコマチス(CT)のリボソームタンパク質L7/L12 (クラミジア・トラコマチス (Chlamydia trachomatis))
T8 construct: also called Chlamydia trachomatis ribosomal protein L7/L12; CT L7/L12

[7] = target: T9, サルモネラ菌(SE)のリボソームタンパク質L7/L12 (サルモネラ菌 (Salmonella enteritidis))
T9 construct: also called Salmonella enteritidis ribosomal protein L7/L12; SE L7/L12

[8] = target: T10, リステリア・モノサイトゲネス(LM)のリボソームタンパク質L7/L12 (リステリア・モノサイトゲネス (Listeria monocytogenes))
T10 construct: also called Listeria monocytogenes ribosomal protein L7/L12; LM L7/L12

[9] = target: T11, カンピロバクター・ジェジュニ(CJ)のリボソームタンパク質L7/L12 (カンピロバクター・ジェジュニ (Campylobacter jejuni))
T11 construct: also called Campylobacter jejuni ribosomal protein L7/L12; CJ L7/L12

[10] = target: T12, 肺炎球菌(SP)のリボソームタンパク質L7/L12 (肺炎球菌 (Streptococcus pneumoniae))
T12 construct: also called Streptococcus pneumoniae ribosomal protein L7/L12; SP L7/L12

[11] = target: T13, インフルエンザ菌(HI)のリボソームタンパク質L7/L12 (インフルエンザ菌 (Haemophilus influenzae))
T13 construct: also called Haemophilus influenzae ribosomal protein L7/L12; HI L7/L12

[12] = target: T14, 肺炎マイコプラズマ(MP)のリボソームタンパク質L7/L12 (肺炎マイコプラズマ (Mycoplasma pneumoniae))
T14 construct: also called Mycoplasma pneumoniae ribosomal protein L7/L12; MP L7/L12

[13] = target: T15, 百日咳菌(BP)のリボソームタンパク質L7/L12 (百日咳菌 (Bordetella pertussis))
T15 construct: also called Bordetella pertussis ribosomal protein L7/L12; BP L7/L12

[14] = target: T16, 肺炎クラミジア(CP)のリボソームタンパク質L7/L12 (肺炎クラミジア (Chlamydia pneumoniae))
T16 construct: also called Chlamydia pneumoniae ribosomal protein L7/L12; CP L7/L12

Measured: absorbance at 450 nm

B1: 汎用性抗体C(CP141A190.1) (antibody, V domains shown)
VH: QVQLQQPGAELVKPGASVKLSCKTSGYNFTSNWIHWVKQRPGQGLEWIGEINPSNGRANYNEKFKNKATLTVDKSSSTAFMHLSSLTSEDSAVYFCSRGDFDEGFTYWGQGTLVTVSA
VL: QIVLTQSPAIMSASLGERVTMTCTASSNVNSDYLHWYQQKPGSSPRLWIYTTSNLASGVPTRFSGNGSGTSYSLTISSMEAEDAATYYCHQYHRSPRTFGGGTKLEIK
notes: also called CP141A190.1; general-purpose antibody C
≥ 0.3 absorbance (450 nm): all assays above

B2: 汎用性抗体A(PA51B2) (antibody, V domains shown)
VH: QVQLQQPGSVLVRPGASVKLSCKPSGYTFTGSWMHWTKQRPGQGLEWIGEIHPYSGNTNYNEKFRVKATLTVDTSSSTTYVDLSSLTSDDSAVYYCASGDFDAGFTYWGQGTLVTVSA
VL: DIVLTQSPASLAVSLGRRATISCKASQSVDYDGDSYMNWYQQKPGQPPKLLIYVASNLESGIPARFSGSGSGTDFTLNIHPVEEEDAATYYCQQTNEDPFTFGAGTKLELK
notes: also called PA51B2; general-purpose antibody A
≥ 0.3 absorbance (450 nm): all assays above

Source: JP2022109630A (dated 2022)
